According to patent US20230242653A1 (TENEOBIO, published 2023):

T1: human IL-2Rβγ receptor (IL-2RB / IL-2RG) on human T-cells (human, UniProt P14784 27-551; P31785 23-369)
T1 construct: also called IL2RB/IL2RG dimeric receptor complex
T1 sequence 1: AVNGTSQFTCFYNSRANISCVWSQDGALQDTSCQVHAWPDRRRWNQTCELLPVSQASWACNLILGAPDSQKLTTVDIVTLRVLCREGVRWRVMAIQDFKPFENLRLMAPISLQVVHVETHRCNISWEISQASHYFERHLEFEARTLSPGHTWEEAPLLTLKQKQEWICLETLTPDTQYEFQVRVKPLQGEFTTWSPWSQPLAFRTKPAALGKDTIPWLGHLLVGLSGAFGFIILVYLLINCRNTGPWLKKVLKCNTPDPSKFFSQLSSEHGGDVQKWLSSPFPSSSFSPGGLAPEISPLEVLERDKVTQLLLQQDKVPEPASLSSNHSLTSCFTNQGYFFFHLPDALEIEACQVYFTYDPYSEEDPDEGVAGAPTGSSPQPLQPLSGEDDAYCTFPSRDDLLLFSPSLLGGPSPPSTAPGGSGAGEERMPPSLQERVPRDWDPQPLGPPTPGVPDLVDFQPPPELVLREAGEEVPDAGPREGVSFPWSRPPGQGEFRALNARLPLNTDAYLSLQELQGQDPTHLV
T1 sequence 2: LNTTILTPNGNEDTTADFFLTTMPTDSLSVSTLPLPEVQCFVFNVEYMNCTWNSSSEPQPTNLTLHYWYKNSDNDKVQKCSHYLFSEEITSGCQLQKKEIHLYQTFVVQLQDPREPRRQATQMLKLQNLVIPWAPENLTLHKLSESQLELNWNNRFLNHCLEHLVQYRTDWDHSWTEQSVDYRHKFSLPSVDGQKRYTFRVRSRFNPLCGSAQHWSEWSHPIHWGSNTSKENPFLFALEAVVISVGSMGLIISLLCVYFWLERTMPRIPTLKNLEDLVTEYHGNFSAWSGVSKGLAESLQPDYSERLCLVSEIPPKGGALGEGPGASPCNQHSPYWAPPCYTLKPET

T2: IL-9R (R&D Systems) (UniProt Q01113 41-270, limits assumed)
T2 sequence (looked up): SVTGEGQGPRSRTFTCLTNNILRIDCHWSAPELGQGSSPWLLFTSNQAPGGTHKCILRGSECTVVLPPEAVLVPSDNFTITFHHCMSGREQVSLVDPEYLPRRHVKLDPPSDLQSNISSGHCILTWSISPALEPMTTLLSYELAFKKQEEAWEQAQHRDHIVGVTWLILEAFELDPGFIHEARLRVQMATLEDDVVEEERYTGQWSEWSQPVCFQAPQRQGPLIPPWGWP

T3: IL-4R (Sino Biological) (UniProt P24394 26-232)
T3 construct: also called IL-4Ra
T3 sequence (looked up): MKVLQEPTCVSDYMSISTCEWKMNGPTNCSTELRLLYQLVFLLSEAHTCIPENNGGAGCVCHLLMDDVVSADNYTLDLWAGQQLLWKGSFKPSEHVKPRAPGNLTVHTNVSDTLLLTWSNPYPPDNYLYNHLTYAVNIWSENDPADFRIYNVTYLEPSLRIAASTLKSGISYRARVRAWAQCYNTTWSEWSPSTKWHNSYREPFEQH

T4: human IL-2Rα (Sino Biological) (human, UniProt P01589 22-213, limits assumed)
T4 construct: also called IL2RA; IL-2RA
T4 sequence: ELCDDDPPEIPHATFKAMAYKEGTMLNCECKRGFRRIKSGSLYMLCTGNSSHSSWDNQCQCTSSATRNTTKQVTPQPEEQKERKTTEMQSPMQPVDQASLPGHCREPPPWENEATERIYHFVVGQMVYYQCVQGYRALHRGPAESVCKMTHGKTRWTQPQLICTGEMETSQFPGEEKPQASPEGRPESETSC

T5: IL-7R (Sino Biological) (UniProt P16871 21-239)
T5 sequence (looked up): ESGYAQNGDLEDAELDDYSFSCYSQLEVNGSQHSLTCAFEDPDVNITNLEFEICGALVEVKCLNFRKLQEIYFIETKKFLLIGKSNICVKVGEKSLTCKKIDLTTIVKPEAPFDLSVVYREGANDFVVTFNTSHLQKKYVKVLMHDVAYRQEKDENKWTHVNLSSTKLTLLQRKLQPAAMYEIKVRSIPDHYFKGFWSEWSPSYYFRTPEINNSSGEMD


What was measured:
[1] = target: T1, human IL-2Rβγ receptor (IL-2RB / …); test: flow cytometry, human CD4+ T-cells, anti-human IgG-PE detection, gMFI as fold over secondary-only background
Protocol: (§1) All washes and dilutions of cells, antibodies, and reagents were performed using flow buffer (1X PBS, 1% BSA, 0.1% NaN3, pH 7.4). Staining was performed in a round-bottom 96-well plate (Corning) seeded at 100,000 cells/well and all incubations were performed at 4° C. or on ice. […] The cells were washed twice with 200 µL flow buffer. The cells were then incubated for 30 minutes with detection antibody (Goat F(ab′)2 Anti-Human IgG-PE, Southern Biotech) at 0.625 µg/mL in flow buffer. Following 2 more washes, the cells were resuspended in a final volume of 150 µL of flow buffer. The cells were analyzed on a BD FACSCelesta or a Guava easyCyte 8-HT flow cytometer. At least 3000 events were collected, and PE geometric mean fluorescence intensity was plotted as a fold over background (cells incubated with secondary detection antibody only). In some secondary screens involving human or cynomolgus PBMCs, an additional CD4 antibody (BioLegend) and/or CD8 antibody (BioLegend) was included to further characterize cell binding.

IL-21R (Sino Biological) = IL-21R (Sino Biological) (UniProt Q9HBE5 20-232); test: Octet BLI off-rate analysis, antibody on AHC sensors
Protocol: (§2) All off-rate measurements were performed on an Octet Qk384 instrument (ForteBio), in 96-well microplates at 25° C. using anti-human IgG Fc capture (AHC, 18-5005) sensors with a shake speed of 1000 rpm. For off-rate determination, the antibodies were loaded on the AHC sensors at 5 µg/mL. Following a short baseline in kinetics buffer (0.02% Tween20, 0.1% BSA, 0.05% sodium azide, 1X PBS). Offrate measurements were done for the following: human IL-2Rβ (AcroBiosystems), human IL- 2Ry (Sino Biological), cynomolgus IL-2Rβ (Sino Biological), cynomolgus IL-2Rγ (expressed and purified in house using ExpiCHO expression system followed by Ni-NTA His-tag purification), mouse IL-2Rγ (Sino Biological), mouse IL-2Rβ (Sino Biological), human IL-2Rα (Sino Biological), IL-4R (Sino Biological), IL-7R (Sino Biological), IL-9R (R&D Systems) and IL-21R (Sino Biological). The following antibodies were used as positive controls to verify target binding and reagent quality: anti-human IL-9R (R&D Systems), anti-human IL-21R (R&D Systems), anti-human IL-7R (R&D Systems) and anti-human IL-4Ra (R&D Systems). The loaded sensors were then submerged in wells containing antigen at 100 nM concentration for association step. Dissociation was monitored in kinetics buffer. The capture surfaces were regenerated for 60 s. ForteBio data analysis software was used to fit the data to a 1:1 binding model to extract an association rate and dissociation rate.

IL-9R (R&D Systems) = target: T2, IL-9R (R&D Systems); test: as above
Protocol: as §2

IL-4R (Sino Biological) = target: T3, IL-4R (Sino Biological); test: as above
Protocol: as §2

[2] = target: T4, human IL-2Rα (Sino Biological); test: as above
Protocol: as §2

IL-7R (Sino Biological) = target: T5, IL-7R (Sino Biological); test: as above
Protocol: as §2

[3] = target: T1, human IL-2Rβγ receptor (IL-2RB / …); test: flow cytometry, human CD8+ T-cells, anti-human IgG-PE detection, gMFI as fold over secondary-only background
Protocol: as §1

[4] = target: cynomolgus IL-2Rβγ receptor (IL-2RB / IL-2RG) on cynomolgus T-cells (cynomolgus, UniProt Q38J85 27-551); test: flow cytometry, cynomolgus CD8+ T-cells, anti-human IgG-PE detection, gMFI as fold over secondary-only background
Protocol: as §1

Sequence of IL-21R (Sino Biological) (Q9HBE5 20-232 limits assumed): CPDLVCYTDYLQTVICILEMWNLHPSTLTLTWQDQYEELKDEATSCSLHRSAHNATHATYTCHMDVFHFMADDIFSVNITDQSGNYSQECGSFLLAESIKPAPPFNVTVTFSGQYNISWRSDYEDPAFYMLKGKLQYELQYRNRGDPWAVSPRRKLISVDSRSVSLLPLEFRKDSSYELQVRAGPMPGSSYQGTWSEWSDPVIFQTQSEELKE
Sequence of cynomolgus IL-2Rβγ receptor (IL-2RB / IL-2RG) on cynomolgus T-cells (Q38J85 27-551): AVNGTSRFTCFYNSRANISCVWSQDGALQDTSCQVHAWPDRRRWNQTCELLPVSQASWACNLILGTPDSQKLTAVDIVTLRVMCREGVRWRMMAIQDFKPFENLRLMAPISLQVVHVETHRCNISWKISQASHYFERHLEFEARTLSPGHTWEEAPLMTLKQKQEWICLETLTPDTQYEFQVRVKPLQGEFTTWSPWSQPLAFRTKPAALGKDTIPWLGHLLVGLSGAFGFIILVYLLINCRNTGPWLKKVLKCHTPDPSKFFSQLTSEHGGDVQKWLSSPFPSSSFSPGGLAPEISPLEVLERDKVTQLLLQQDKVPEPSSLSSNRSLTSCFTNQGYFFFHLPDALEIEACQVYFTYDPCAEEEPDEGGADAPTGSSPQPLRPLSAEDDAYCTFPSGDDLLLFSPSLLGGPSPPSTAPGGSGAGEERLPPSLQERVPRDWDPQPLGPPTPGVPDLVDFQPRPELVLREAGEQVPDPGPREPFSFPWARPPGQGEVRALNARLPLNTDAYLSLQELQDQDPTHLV

EC50 (read off the curve) [1] [nM]	binding result (IL-21R (Sino Biological))	binding result (IL-9R (R&D Systems))	binding result (IL-4R (Sino Biological))	binding result [2]	binding result (IL-7R (Sino Biological))	EC50 (read off the curve) [3] [nM]	EC50 (read off the curve) [4] [nM]	Binder
~5	no binding (tested: 100 nM antigen)	no binding (tested: 100 nM antigen)	no binding (tested: 100 nM antigen)	no binding (tested: 100 nM antigen)	no binding (tested: 100 nM antigen)			IL2RB_F09G**IL2RG_F16B (bispecific antibody, human IgG4, V domains shown, Bispecific heavy chain-only UniAb on silenced, stabilized human IgG4 Fc without CH1, knobs-into-holes; also called BsAb-2; not shown: C-terminal His-tag on the knob chain) V domain 1: QVQLQESGPGLVKSSETLSLTCTVSGGSISSSDWWSWVRQPPGKGLEWIGEIDHSGSTNYNPSLMSRVTISVDKSKNQFSLKLSSVTAADTAVYFCARGSWELTDAFDIRGQGTLVTVSS V domain 2: QVQLVESGGGLVKPGGSLRLSCAASGFTFSDYYMSWIRQAPGKGLEWVSYISSSGSTIYYADSVKGRFTISRDNAKNSLYLQMNSLRAEDTAVYYCARGDAVSITGDYRGQGTLVTVSS
	no binding (tested: 100 nM antigen)	no binding (tested: 100 nM antigen)	no binding (tested: 100 nM antigen)	no binding (tested: 100 nM antigen)	no binding (tested: 100 nM antigen)			IL2RB_F18E**IL2RG_F16A (bispecific antibody, human IgG4, V domains shown, Bispecific heavy chain-only UniAb on silenced, stabilized human IgG4 Fc without CH1, knobs-into-holes; also called BsAb-6; not shown: C-terminal His-tag on the knob chain) V domain 1: QVQLVESGGGVVQPGRSLRLSCAASGFTFSSYGMHWVRQAPGKEREWVAVISYDGSNKYYTDSVKGRFTISRDNSKNTLYLEMNSLRAEDTAVYYCARDLDYDVLTGDPVGGFDIWGQGTLVTVSS V domain 2: QVQLVESGGGLVKPGGSLRLSCAASGFTFSDYYMSWIRQAPGKGLEWVSSISSSGDTIYYADSVQGRFTLSRDNAENSLFLQMNSLRAEDTAVYYCARGDAVSITGDYRGQGTLVTVSS
	no binding (tested: 100 nM antigen)	no binding (tested: 100 nM antigen)	no binding (tested: 100 nM antigen)	no binding (tested: 100 nM antigen)	no binding (tested: 100 nM antigen)			IL2RB_F09G**IL2RG_F18A (bispecific antibody, human IgG4, V domains shown, Bispecific heavy chain-only UniAb on silenced, stabilized human IgG4 Fc without CH1, knobs-into-holes; also called BsAb-4; not shown: C-terminal His-tag on the knob chain) V domain 1: QVQLQESGPGLVKSSETLSLTCTVSGGSISSSDWWSWVRQPPGKGLEWIGEIDHSGSTNYNPSLMSRVTISVDKSKNQFSLKLSSVTAADTAVYFCARGSWELTDAFDIRGQGTLVTVSS V domain 2: QVQLVESGGDLVKPGGSLRLSCAASGFTFSDYYMSWLRQAPGKELEWVSHISSSGTTTYYADSVEGRFTITRDNAKNSLYLQMNSLRAEDTAVYYCARGAAVAPGFDSRGQGTLVTVSS
~6	no binding (tested: 100 nM antigen)	no binding (tested: 100 nM antigen)	no binding (tested: 100 nM antigen)	no binding (tested: 100 nM antigen)	no binding (tested: 100 nM antigen)	~6		IL2RB_F09G**IL2RG_F16C (bispecific antibody, human IgG4, V domains shown, Bispecific heavy chain-only UniAb on silenced, stabilized human IgG4 Fc without CH1, knobs-into-holes; also called BsAb-3; not shown: C-terminal His-tag on the knob chain) V domain 1: QVQLQESGPGLVKSSETLSLTCTVSGGSISSSDWWSWVRQPPGKGLEWIGEIDHSGSTNYNPSLMSRVTISVDKSKNQFSLKLSSVTAADTAVYFCARGSWELTDAFDIRGQGTLVTVSS V domain 2: QVQLVESGGGLVKPGGSLRLSCAASGFTFNDYYMSWIRQAPGKGLEWVSHISSSGSTIYYADSVKGRFTVSRDNANNSLYLQMHSLRAEDTAVYYCARGDAVSITGDYRGQGTLVTVSS
~5	no binding (tested: 100 nM antigen)	no binding (tested: 100 nM antigen)	no binding (tested: 100 nM antigen)	no binding (tested: 100 nM antigen)	no binding (tested: 100 nM antigen)			IL2RB_F09C**IL2RG_F16A (bispecific antibody, human IgG4, V domains shown, Bispecific heavy chain-only UniAb on silenced, stabilized human IgG4 Fc without CH1, knobs-into-holes; also called BsAb-1; not shown: C-terminal His-tag on the knob chain) V domain 1: QVQLQESGPGLVKPSGTLSLTCAVSGGSISSSDWWSWVRQPPGKGLEWIGEIDHSGSTNYNPSLMSRVTISVDKSKNQFSLKLSSVTAADTAVYFCGRGSWELSDAFDIRGQGTLVTVSS V domain 2: QVQLVESGGGLVKPGGSLRLSCAASGFTFSDYYMSWIRQAPGKGLEWVSSISSSGDTIYYADSVQGRFTLSRDNAENSLFLQMNSLRAEDTAVYYCARGDAVSITGDYRGQGTLVTVSS
	no binding (tested: 100 nM antigen)	no binding (tested: 100 nM antigen)	no binding (tested: 100 nM antigen)	no binding (tested: 100 nM antigen)	no binding (tested: 100 nM antigen)		~5	IL2RB_F09K**IL2RG_F16B (bispecific antibody, human IgG4, V domains shown, Bispecific heavy chain-only UniAb on silenced, stabilized human IgG4 Fc without CH1, knobs-into-holes; also called BsAb-5; not shown: C-terminal His-tag on the knob chain) V domain 1: QVQLQESSPGLVKPSETLSLTCTVSGGSISSSNWWSWVRQPPGKGLEWIGEISHSGSTNYNPSLKSRVTISVDKSKNQFSLRLSSVTAADTAVYFCGRGSWELTDAFDIRGQGTLVTVSS V domain 2: QVQLVESGGGLVKPGGSLRLSCAASGFTFSDYYMSWIRQAPGKGLEWVSYISSSGSTIYYADSVKGRFTISRDNAKNSLYLQMNSLRAEDTAVYYCARGDAVSITGDYRGQGTLVTVSS
